Experimental data: US20170137512A1 (Ablynx, published 2017)
Like-named read-outs stand apart in the source and are kept apart here.

T1: cyno Kv1.3 (Macaca fascicularis, UniProt P22001 1-575 (human entry))
T1 chain: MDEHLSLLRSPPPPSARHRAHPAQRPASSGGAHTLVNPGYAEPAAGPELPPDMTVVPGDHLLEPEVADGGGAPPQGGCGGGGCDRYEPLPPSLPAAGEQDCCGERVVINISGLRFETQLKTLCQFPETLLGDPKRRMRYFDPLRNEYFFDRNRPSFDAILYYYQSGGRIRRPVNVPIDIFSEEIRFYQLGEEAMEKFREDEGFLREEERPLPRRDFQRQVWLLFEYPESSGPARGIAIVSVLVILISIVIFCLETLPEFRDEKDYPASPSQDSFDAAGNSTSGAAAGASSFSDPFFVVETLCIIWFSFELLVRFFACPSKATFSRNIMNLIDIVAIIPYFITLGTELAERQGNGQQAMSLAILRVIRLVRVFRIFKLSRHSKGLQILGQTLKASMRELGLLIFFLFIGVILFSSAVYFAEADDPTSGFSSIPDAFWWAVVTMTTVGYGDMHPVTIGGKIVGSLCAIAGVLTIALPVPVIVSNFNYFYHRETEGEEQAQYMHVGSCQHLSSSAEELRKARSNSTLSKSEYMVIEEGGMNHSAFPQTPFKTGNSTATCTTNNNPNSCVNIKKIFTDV

B1: A019400015 (VHH)
chain: EVQLVESGGGLVQAGGSLGLSCSASGLLFSRNSAGWYRQAPGKQREFVARIRMGGSINYADTVKGRFTISRDNAKNTVYLQMNSLKPEDTAVYYCSSWRTGFYEYWGQGTLVTVSSGGGGSGGGGSGGGGSGGGGSGGGGSGGGGSGGGGSEVQLVESGGGLVQAGGSLGLSCSASGLLFSRNSAGWYRQAPGKQREFVARIRMGGSINYADTVKGRFTISRDNAKNTVYLQMNSLKPEDTAVYYCSSWRTGFYEYWGQGTLVTVSSGGGGSGGGGSGGGGSGGGGSGGGGSGGGGSGGGGSEVQLVESGGGLVQAGGSLGLSCSASGLLFSRNSAGWYRQAPGKQREFVARIRMGGSINYADTVKGRFTISRDNAKNTVYLQMNSLKPEDTAVYYCSSWRTGFYEYWGQGTLVTVSS
notes: Trivalent Nanobody construct (family 12); also called A0194009G09-35GS-A0194009G09-35GS-A0194009G09
B2: A019400009 (VHH)
chain: EVQLVESGGGLVQAGGSLGLSCSASGLLFSRNSAGWYRQAPGKQREFVARIRMGGSINYADTVKGRFTISRDNAKNTVYLQMNSLKPEDTAVYYCSSWRTGFYEYWGQGTLVTVSSGGGGSGGGGSGGGGSGGGGSGGGGSGGGGSGGGGSEVQLVESGGGLVQAGGSLGLSCSASGLLFSRNSAGWYRQAPGKQREFVARIRMGGSINYADTVKGRFTISRDNAKNTVYLQMNSLKPEDTAVYYCSSWRTGFYEYWGQGTLVTVSS
B3: A019400013 (VHH)
chain: EVQLVESGGGLVQAGGSLGLSCSASGLLFSRNSAGWYRQAPGKQREFVARIRMGGSINYADTVKGRFTISRDNAKNTVYLQMNSLKPEDTAVYYCSSWRTGFYEYWGQGTLVTVSSGGGGSGGGGSGGGGSGGGGSGGGGSGGGGSGGGGSEVQLVESGGGLVQAGGSLGLSCSASGLLFSRNSAGWYRQAPGKQREFVARIRMGGSINYADTVKGRFTISRDNAKNTVYLQMNSLKPEDTAVYYCSSWRTGFYEYWGQGTLVTVSS
notes: Bivalent Nanobody construct (family 12 - family 12), without Alb11; also called A0194009G09-35GS-A0194009G09
B4: A019400014 (other)
chain: EVQLVESGGGLVQAGGSLSLSCTASGGTFRNFGMGWFRQAQGKEREFVAAISRTGGHTYYQDSVKGRFTISKDNAKNILSLQMNSLKPEDTAVYYCAARFRFGDGTYYYQRAFYDFWGQGTLVTVSSGGGGSGGGGSGGGGSGGGGSGGGGSGGGGSGGGGSEVQLVESGGGLVQAGGSLGLSCSASGLLFSRNSAGWYRQAPGKQREFVARIRMGGSINYADTVKGRFTISRDNAKNTVYLQMNSLKPEDTAVYYCSSWRTGFYEYWGQGTLVTVSS
notes: Biparatopic Nanobody construct (family 1 - family 12); also called A019400003-35GS-A0194009G09; A019400011
B5: A019400003 (VHH)
VHH: EVQLVESGGGLVQAGGSLSLSCTASGGTFRNFGMGWFRQAQGKEREFVAAISRTGGHTYYQDSVKGRFTISKDNAKNILSLQMNSLKPEDTAVYYCAARFRFGDGTYYYQRAFYDFWGQGTQVTVSS
notes: Monovalent Nanobody of family 1, purified from E. coli TG1; not shown: triple Flag, His6 tag
B6: A019400004 (other)
chain: EVQLVESGGGLVQAGGSLSLSCTASGGTFRNFGMGWFRQAQGKEREFVAAISRTGGHTYYQDSVKGRFTISKDNAKNILSLQMNSLKPEDTAVYYCAARFRFGDGTYYYQRAFYDFWGQGTQVTVSSGGGGSGGGGSGGGGSGGGGSGGGGSGGGGSGGGGSGGGGSEVQLVESGGGLVQAGGSLSLSCTASGGTFRNFGMGWFRQAQGKEREFVAAISRTGGHTYYQDSVKGRFTISKDNAKNILSLQMNSLKPEDTAVYYCAARFRFGDGTYYYQRAFYDFWGQGTQVTVSS
notes: Bivalent Nanobody construct (family 1 - family 1), expressed in Pichia; also called A019400003-40GS-A019400003
B7: A0194009G09 (VHH)
VHH: EVQLVESGGGLVQAGGSLGLSCSASGLLFSRNSAGWYRQAPGKQREFVARIRMGGSINYADTVKGRFTISRDNAKNTVYLQMNSLKPEDTAVYYCSSWRTGFYEYWGQGTLVTVSS
notes: Monovalent Nanobody of family 12; not shown: triple Flag, His6 tag
B8: A019400012 (other)
chain: EVQLVESGGGLVQAGGSLGLSCSASGLLFSRNSAGWYRQAPGKQREFVARIRMGGSINYADTVKGRFTISRDNAKNTVYLQMNSLKPEDTAVYYCSSWRTGFYEYWGQGTLVTVSSGGGGSGGGGSGGGGSGGGGSGGGGSGGGGSGGGGSEVQLVESGGGLVQAGGSLSLSCTASGGTFRNFGMGWFRQAQGKEREFVAAISRTGGHTYYQDSVKGRFTISKDNAKNILSLQMNSLKPEDTAVYYCAARFRFGDGTYYYQRAFYDFWGQGTLVTVSS
B9: A019400032 (VHH)
chain: DVQLVESGGGLVQAGGSLGLSCSASGLLFSRNSAGWYRQAPGKRREFVARIRMGGSINYADSVKGRFTVSRDNAKNMMYLQMNDLKPEDTAVYFCSGWREGFYEYWGQGTLVTVSSGGGGSGGGGSGGGGSGGGGSGGGGSGGGGSGGGGSEVQLVESGGGLVQAGGSLGLSCSASGLLFSRNSAGWYRQAPGKRREFVARIRMGGSINYADSVKGRFTVSRDNAKNMMYLQMNDLKPEDTAVYFCSGWREGFYEYWGQGTLVTVSS

How the values were obtained:
cyno Kv1.3 [1] = biological target: T1, cyno Kv1.3
human Kv1.3 [2] = biological target: T2, human Kv1.3 (Homo sapiens, UniProt P22001 1-575); test: cell-based or functional assay
human Kv1.3 [3] = biological target: T2, human Kv1.3; test: cell-based or functional assay; remark: listed apart in the source
rat Kv1.3 [4] = biological target: T3, rat Kv1.3 (Rattus norvegicus, UniProt P15384 1-525); test: FACS, CHO cells expressing rat Kv1.3
T3 construct: Expressed on CHO cells

cyno Kv1.3 [5] = biological target: T1, cyno Kv1.3; test: FACS, CHO cells expressing cyno Kv1.3
human Kv1.3 [6] = biological target: T2, human Kv1.3; test: FACS, CHO cells expressing human Kv1.3
human Kv1.3 [7] = biological target: T2, human Kv1.3; test: cell-based or functional assay; remark: listed apart in the source
human Kv1.3 [8] = biological target: T2, human Kv1.3; test: cell-based or functional assay; remark: listed apart in the source
rat Kv1.3 [9] = biological target: T3, rat Kv1.3; test: FACS, CHO cells expressing rat Kv1.3; remark: listed apart in the source
cyno Kv1.3 [10] = biological target: T1, cyno Kv1.3; test: FACS, CHO cells expressing cyno Kv1.3
rat Kv1.3 [11] = biological target: T3, rat Kv1.3; test: FACS, CHO cells expressing rat Kv1.3, with 50 µM HSA
cyno Kv1.3 [12] = biological target: T1, cyno Kv1.3; test: FACS, CHO cells expressing cyno Kv1.3, with 50 µM HSA
cyno Kv1.3 [13] = biological target: T1, cyno Kv1.3
human Kv1.3 [14] = biological target: T2, human Kv1.3
human Kv1.3 [15] = biological target: T2, human Kv1.3; test: cell-based or functional assay; remark: listed apart in the source
rat Kv1.3 [16] = biological target: T3, rat Kv1.3; test: FACS, CHO cells expressing rat Kv1.3; remark: listed apart in the source
cyno Kv1.3 [17] = biological target: T1, cyno Kv1.3; test: FACS, CHO cells expressing cyno Kv1.3
human Kv1.3 [18] = biological target: T2, human Kv1.3; test: FACS, CHO cells expressing human Kv1.3; remark: listed apart in the source
human Kv1.3 [19] = biological target: T2, human Kv1.3; test: cell-based or functional assay; remark: listed apart in the source
human Kv1.3 [20] = biological target: T2, human Kv1.3; test: cell-based or functional assay; remark: listed apart in the source

T2 sequence (P22001 whole entry): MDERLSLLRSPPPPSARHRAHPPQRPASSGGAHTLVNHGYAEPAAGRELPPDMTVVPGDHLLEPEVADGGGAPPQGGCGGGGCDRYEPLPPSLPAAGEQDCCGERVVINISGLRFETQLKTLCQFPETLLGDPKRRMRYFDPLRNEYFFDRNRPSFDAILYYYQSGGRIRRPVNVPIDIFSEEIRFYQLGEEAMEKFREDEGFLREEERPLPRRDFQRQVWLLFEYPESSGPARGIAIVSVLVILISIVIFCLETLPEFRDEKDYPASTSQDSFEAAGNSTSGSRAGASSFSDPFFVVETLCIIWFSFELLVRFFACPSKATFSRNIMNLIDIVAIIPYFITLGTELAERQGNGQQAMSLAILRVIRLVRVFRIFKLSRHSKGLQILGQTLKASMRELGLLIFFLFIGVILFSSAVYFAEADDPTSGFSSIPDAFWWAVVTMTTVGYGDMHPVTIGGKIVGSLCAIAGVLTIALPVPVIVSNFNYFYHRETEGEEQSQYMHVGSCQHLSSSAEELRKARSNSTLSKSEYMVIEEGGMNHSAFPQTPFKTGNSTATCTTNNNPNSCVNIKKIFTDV

Row | Binder | IC50 (cyno Kv1.3 [1]) | Average IC50, Kv1.3 current, IonWorks perforated patch clamp, CHL cells (human Kv1.3 [2]) | IC50, CD25 read out, CCR7-CD45RA- T cells stimulated with anti-CD3 (human Kv1.3 [3]) | IC50, IFNγ read out, CCR7-CD45RA- T cells stimulated with anti-CD3 (human Kv1.3 [3]) | EC50 (rat Kv1.3 [4]) | EC50 (cyno Kv1.3 [5]) | EC50 (human Kv1.3 [6]) | Average IC50, Kv1.3 current, IonFlux automated patch clamp, HEK293H cells (human Kv1.3 [7]) | further results
1 | B1 | 0.2 nM | 0.8 nM | 0.059 nM | 0.032 nM | 0.44 nM | 0.31 nM | 0.66 nM |  | 
2 | B2 |  | 0.81 nM |  |  |  |  |  | 0.73 nM | 
3 | B3 | 0.66 nM |  | 0.12 nM | 0.083 nM | 0.49 nM | 0.24 nM | 0.32 nM |  | IC50, CD25 read out, T cell activation assay (human Kv1.3 [8]): 0.12 nM; IC50, CD25 read out, T cell activation assay, with 10 µM HSA (human Kv1.3 [8]): 0.037 nM; IC50, IFNγ read out, T cell activation assay (human Kv1.3 [8]): 0.083 nM; IC50, IFNγ read out, T cell activation assay, with 10 µM HSA (human Kv1.3 [8]): 0.031 nM; EC50 (rat Kv1.3 [9]): 0.704 nM; EC50 (cyno Kv1.3 [10]): 0.33 nM; EC50 (rat Kv1.3 [11]): 0.85 nM; EC50 (cyno Kv1.3 [12]): 0.45 nM
4 | B4 | 0.61 nM | 14 nM | 0.11 nM | 0.32 nM | 0.74 nM | 0.41 nM | 1.1 nM | 14 nM | 
5 | B5 |  |  |  |  |  |  |  |  | IC50 (cyno Kv1.3 [13]): 1.3 nM; IC50 (read off the curve) (human Kv1.3 [14]): ~30 nM; Average IC50, Kv1.3 current, IonWorks perforated patch clamp, CHL cells (human Kv1.3 [15]): > 1000 nM; EC50 (rat Kv1.3 [16]): 380 nM; EC50 (cyno Kv1.3 [17]): 2.5 nM; EC50 (human Kv1.3 [18]): 6.2 nM
6 | B6 | 0.64 nM | > 1000 nM |  |  | 1.1 nM | 0.44 nM | 2.2 nM |  | 
7 | B7 |  |  |  |  |  |  |  |  | IC50 (cyno Kv1.3 [13]): 9.8 nM; IC50 (read off the curve) (human Kv1.3 [14]): ~10 nM; Average IC50, Kv1.3 current, IonFlux automated patch clamp, HEK293H cells (human Kv1.3 [19]): 8.2 nM; Average IC50, Kv1.3 current, IonWorks perforated patch clamp, CHL cells (human Kv1.3 [15]): 37 nM; IC50, CD25 read out, CCR7-CD45RA- T cells stimulated with anti-CD3 (human Kv1.3 [20]): 62 nM; IC50, IFNγ read out, CCR7-CD45RA- T cells stimulated with anti-CD3 (human Kv1.3 [20]): 47 nM; EC50 (rat Kv1.3 [16]): 240 nM; EC50 (cyno Kv1.3 [17]): 11 nM; EC50 (human Kv1.3 [18]): 7.9 nM
8 | B8 | 0.5 nM | 4.2 nM | 0.31 nM | 0.31 nM |  |  |  | 4.2 nM | 
9 | B9 | 0.56 nM | 1.2 nM | 0.12 nM | 0.069 nM |  |  |  |  | IC50, CD25 read out, T cell activation assay (human Kv1.3 [8]): 0.12 nM; IC50, CD25 read out, T cell activation assay, with 10 µM HSA (human Kv1.3 [8]): 0.33 nM; IC50, IFNγ read out, T cell activation assay (human Kv1.3 [8]): 0.069 nM; IC50, IFNγ read out, T cell activation assay, with 10 µM HSA (human Kv1.3 [8]): 0.086 nM
